Source: patent US20170298146A1 (MODIQUEST B V, published 2017)
Non-standard residues stand in square brackets, D forms with d. No end group written: not given here. Cit = NC(=O)NCCC[C@H](N)C(=O)O

Experiments:
[1] = biological target: T1, human recombinant histone H2A (human); assay: ELISA, 2 ug/well
T1 construct: Non-deiminated
Procedure: (§1) CFC-1 and CFC-0 were coated at the same concentration and served as positive and negative controls, respectively, for specific anti-citrulline reactivity and as coating controls. Non-coated wells were used to test for aspecific binding of the antibodies. […] Detection of bound anti-citrulline antibodies was performed by incubating the wells with rabbit-anti-human-HRP (1:2000) for one hour at RT followed by incubation with TMB substrate. The resulting OD (y-axis) is a measure for antibody binding. H1=recombinant histone 1; H1/p2=huPAD2 recombinant histone 1; H1/p4=huPAD4 recombinant histone 1 and so forth (x-axis).

[2] = biological target: T2, huPAD2 deiminated human recombinant histone H2A (human); assay: ELISA, 2 ug/well
T2 construct: also called H2A/p2
Procedure: as §1

[3] = biological target: T3, huPAD4 deiminated human recombinant histone H2A (human); assay: ELISA, 2 ug/well
T3 construct: also called H2A/p4; huPAD4 deiminated histone 2A
Procedure: as §1

[4] = biological target: T4, human recombinant histone H2B (human); assay: ELISA, 2 ug/well
T4 construct: Non-deiminated
Procedure: as §1

[5] = biological target: T5, huPAD2 deiminated human recombinant histone H2B (human); assay: ELISA, 2 ug/well
T5 construct: also called H2B/p2
Procedure: as §1

[6] = biological target: T6, huPAD4 deiminated human recombinant histone H2B (human); assay: ELISA, 2 ug/well
T6 construct: also called H2B/p4
Procedure: as §1

[7] = biological target: T7, huPAD2 deiminated human recombinant histone H3 (human); assay: ELISA, 2 ug/well
T7 construct: also called H3/p2
Procedure: as §1

[8] = biological target: T8, huPAD4 deiminated human recombinant histone H3 (human); assay: ELISA, 2 ug/well
T8 construct: also called H3/p4
Procedure: as §1

[9] = biological target: human recombinant histone H4 (human, UniProt P62805 2-103); assay: ELISA, 2 ug/well
Procedure: as §1

[10] = biological target: T9, CFC-1; assay: ELISA, 2 ug/well
T9 construct: Positive control for anti-citrulline reactivity; also called cfc1 XG
Procedure: as §1

[11] = biological target: T10, Histone 2A citrulline-containing peptide 1 (human, also: biotin label); assay: peptide ELISA, 0.4 ug/well
T10 construct: also called AAASGXGKQGGK
T10 peptide: AAASG[Cit]GKQGGK
Procedure: as §1, with “Biotin and citrulline-containing peptides derived from histone 2A were immobilized on NEUTRAVIDIN®-coated 96-well ELISA plates (0.3 μg/well). CFC-1” for “CFC-1”, “controls respectively” for “controls, respectively,”, “binding.” for “binding. H1=recombinant histone 1; H1/p2=huPAD2 recombinant histone 1; H1/p4=huPAD4 recombinant histone 1 and so forth (x-axis).”
(§2) Ninety-six-well ELISA plates were coated with NEUTRAVIDIN® (0.1 μg/well) by overnight incubation at 4° C. Wells were washed five times with PBS-TWEEN®-20 (PBS-T) and blocked by a one-hour incubation with PBS-T+1% Bovine serum albumin (BSA) at room temperature (RT). After five more washes with PBS-T, wells were incubated for one hour at RT with histone-derived citrulline and biotin-containing peptides (0.3 μg/well). […] Wells were washed five times with PBS-T and incubated with rabbit-anti-human-HRP (1:2000) for one hour at RT followed by five washes with PBS-T and three wash steps with PBS. Wells were incubated for five minutes with TMB substrate before stopping the reaction with 2 M H₂SO₄. Optical density was measured by 450 nm and is a measure for the affinity of the antibodies used.

[12] = biological target: T11, Histone 2A citrulline-containing peptide 3 (human, also: biotin label); assay: peptide ELISA, 0.4 ug/well
T11 peptide: KSRSS[Cit]AGLQFP
Procedure: as §1, with “Biotin and citrulline-containing peptides derived from histone 2A were immobilized on NEUTRAVIDIN®-coated 96-well ELISA plates (0.3 μg/well). CFC-1” for “CFC-1”, “controls respectively” for “controls, respectively,”, “binding.” for “binding. H1=recombinant histone 1; H1/p2=huPAD2 recombinant histone 1; H1/p4=huPAD4 recombinant histone 1 and so forth (x-axis).”
as §2

[13] = biological target: T12, Histone 2A citrulline-containing peptide 4 (human, also: biotin label); assay: peptide ELISA, 0.4 ug/well
T12 peptide: QFPVG[Cit]VHRLLR
Procedure: as §1, with “Biotin and citrulline-containing peptides derived from histone 2A were immobilized on NEUTRAVIDIN®-coated 96-well ELISA plates (0.3 μg/well). CFC-1” for “CFC-1”, “controls respectively” for “controls, respectively,”, “binding.” for “binding. H1=recombinant histone 1; H1/p2=huPAD2 recombinant histone 1; H1/p4=huPAD4 recombinant histone 1 and so forth (x-axis).”
as §2

[14] = biological target: T13, Histone 2A citrulline-containing peptide 5 (human, also: biotin label); assay: peptide ELISA, 0.4 ug/well
T13 peptide: VGRVH[Cit]LLRKGN
Procedure: as §1, with “Biotin and citrulline-containing peptides derived from histone 2A were immobilized on NEUTRAVIDIN®-coated 96-well ELISA plates (0.3 μg/well). CFC-1” for “CFC-1”, “controls respectively” for “controls, respectively,”, “binding.” for “binding. H1=recombinant histone 1; H1/p2=huPAD2 recombinant histone 1; H1/p4=huPAD4 recombinant histone 1 and so forth (x-axis).”
as §2

[15] = biological target: T14, Histone 2A citrulline-containing peptide 6 (human, also: biotin label); assay: peptide ELISA, 0.4 ug/well
T14 peptide: VHRLL[Cit]KGNYSE
Procedure: as §1, with “Biotin and citrulline-containing peptides derived from histone 2A were immobilized on NEUTRAVIDIN®-coated 96-well ELISA plates (0.3 μg/well). CFC-1” for “CFC-1”, “controls respectively” for “controls, respectively,”, “binding.” for “binding. H1=recombinant histone 1; H1/p2=huPAD2 recombinant histone 1; H1/p4=huPAD4 recombinant histone 1 and so forth (x-axis).”
as §2

[16] = biological target: T15, Histone 2A citrulline-containing peptide 8 (human, also: biotin label); assay: peptide ELISA, 0.4 ug/well
T15 peptide: AGNAA[Cit]DNKKTR
Procedure: as §1, with “Biotin and citrulline-containing peptides derived from histone 2A were immobilized on NEUTRAVIDIN®-coated 96-well ELISA plates (0.3 μg/well). CFC-1” for “CFC-1”, “controls respectively” for “controls, respectively,”, “binding.” for “binding. H1=recombinant histone 1; H1/p2=huPAD2 recombinant histone 1; H1/p4=huPAD4 recombinant histone 1 and so forth (x-axis).”
as §2

[17] = biological target: T16, Histone 2A citrulline-containing peptide 9 (human, also: biotin label); assay: peptide ELISA, 0.4 ug/well
T16 peptide: DNKKT[Cit]IIPRHL
Procedure: as §1, with “Biotin and citrulline-containing peptides derived from histone 2A were immobilized on NEUTRAVIDIN®-coated 96-well ELISA plates (0.3 μg/well). CFC-1” for “CFC-1”, “controls respectively” for “controls, respectively,”, “binding.” for “binding. H1=recombinant histone 1; H1/p2=huPAD2 recombinant histone 1; H1/p4=huPAD4 recombinant histone 1 and so forth (x-axis).”
as §2

[18] = biological target: T17, Histone 2A citrulline-containing peptide 10 (human, also: biotin label); assay: peptide ELISA, 0.4 ug/well
T17 peptide: TRIIP[Cit]HLQLAI
Procedure: as §1, with “Biotin and citrulline-containing peptides derived from histone 2A were immobilized on NEUTRAVIDIN®-coated 96-well ELISA plates (0.3 μg/well). CFC-1” for “CFC-1”, “controls respectively” for “controls, respectively,”, “binding.” for “binding. H1=recombinant histone 1; H1/p2=huPAD2 recombinant histone 1; H1/p4=huPAD4 recombinant histone 1 and so forth (x-axis).”
as §2

[19] = biological target: T18, Histone 2A citrulline-containing peptide 11 (human, also: biotin label); assay: peptide ELISA, 0.4 ug/well
T18 peptide: LQLAI[Cit]NDEELN
Procedure: as §1, with “Biotin and citrulline-containing peptides derived from histone 2A were immobilized on NEUTRAVIDIN®-coated 96-well ELISA plates (0.3 μg/well). CFC-1” for “CFC-1”, “controls respectively” for “controls, respectively,”, “binding.” for “binding. H1=recombinant histone 1; H1/p2=huPAD2 recombinant histone 1; H1/p4=huPAD4 recombinant histone 1 and so forth (x-axis).”
as §2

[20] = biological target: T9, CFC-1; assay: peptide ELISA, 0.08 ug/well
Procedure: (§3) Biotin and citrulline-containing peptides derived from fibrinogen and vimentin were immobilized on NEUTRAVIDIN®-coated 96-well ELISA plates (0.3 μg/well). CFC-1 and CFC-0 were coated at the same concentration and served as positive and negative controls respectively for specific anti-citrulline reactivity and as coating controls. Non-coated wells were used to test for aspecific binding of the antibodies. […] Detection of bound anti-citrulline antibodies was performed by incubating the wells with rabbit-anti-human-HRP (1:2000) for one hour at RT followed by incubation with TMB substrate. The resulting OD (y-axis) is a measure for antibody binding.
(§4) Biotin-labeled and citrulline-containing fibrinogen and vimentin peptides (Table 5) were also tested for reactivity with the therapeutic antibodies. Peptides were coated on 96-well NEUTRAVIDIN®-ELISA plates.

[21] = biological target: T19, msFibα XG (mouse, X at position 8 is citrulline; biotin label); assay: peptide ELISA, 0.08 ug/well
T19 peptide: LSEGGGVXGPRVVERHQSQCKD
Procedure: as §3, §4

[22] = biological target: T20, huFibα XH (human, X at position 15 is citrulline; biotin label); assay: peptide ELISA, 0.08 ug/well
T20 peptide: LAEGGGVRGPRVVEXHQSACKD
Procedure: as §3, §4

[23] = biological target: T21, huFibα XG (human, X at position 8 is citrulline; biotin label); assay: peptide ELISA, 0.08 ug/well
T21 peptide: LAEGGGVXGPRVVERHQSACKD
Procedure: as §3, §4

[24] = biological target: T22, msFibβ XG (mouse, also: biotin label); assay: peptide ELISA, 0.08 ug/well
T22 peptide: EPTDSLDA[Cit]GHRPVDRR
Procedure: as §3, §4

B1: RhmAb2.102 (antibody, human IgG1, lambda)
heavy: not shown
light: QSVLTQPPSMSAAPGQKVTISCSGSSSNIGNNYVSWYQQVPGTAPKLLIYDDNKRPSGIPGRFSGSKSATSATLGITGLQAGDEADYYCGSWDDNLSVVLFGGGTKLTVLGQPKAAPSVTLFPPSSEELQANKATLVCLISDFYPGAVTVAWKADSSPVKAGVETTTPSKQSNNKYAASSYLSLTPEQWKSHRSYSCQVTHEGSTVEKTVAPTECS
notes: Human IgG1 lambda; also called Rhm2.102
[1]
  OD: 0.115 OD
[2]
  OD: 3.18 OD
[3]
  OD: 3.13 OD
[4]
  OD: 0.076 OD
[5]
  OD: 0.086 OD
[6]
  OD: 0.069 OD
[7]
  OD: 1.94 OD
[8]
  OD: 0.439 OD
[9]
  OD: 0.208 OD
[10]
  OD: 3.38 OD
[11]
  OD: 2.8 OD
[12]
  OD: 0.154 OD
[13]
  OD: 0.564 OD
[14]
  OD: 0.082 OD
[15]
  OD: 0.333 OD
[16]
  OD: 0.061 OD
[17]
  OD: 0.057 OD
[18]
  OD: 0.051 OD
[19]
  OD: 0.064 OD
[20]
  OD: 3.03 OD
[21]
  OD: 0.237 OD
[22]
  OD: 0.08 OD
[23]
  OD: 0.186 OD
[24]
  OD: 0.515 OD
